The results in this text go back to US20120164068A1 (AVIPEP, published 2012).

The target of assay [1] is T1, recombinant HER2 ectodomain (UniProt P04626 23-652, limits assumed).
T1 construct: extracellular domain
Briefly: column shift assay: size exclusion chromatography of the Avibody with and without soluble antigen (recombinant HER2 ectodomain), A280. For orientation: In gel filtration, larger molecules generally elute earlier.

The target of assay [2] is T1, recombinant HER2 ectodomain. Briefly: column shift assay: size exclusion chromatography of the PEG24 conjugate with and without soluble antigen (recombinant HER2 ectodomain), A280.
Assay [3] has the same target. Briefly: column shift assay: size exclusion chromatography of the Avibody with and without soluble antigen (recombinant HER2 ectodomain), A280. The source holds these as a separate data set.

B1: AVP07-71 anti-HER2 scFv (Cys at Kabat L8 and L12, CDR3H cysteines removed, N-terminal serine) (scFv)
scFv: SVQLVQSGAEVKKPGESLKISCKGSGYSFTSYWIAWVRQMPGKGLEYMGLIYPGDSDTKYSPSFQGQVTISVDKSVSTAYLQWSSLKPSDSAVYFCARHDVGYASSSNAAKWPEYFQHWGQGTLVTVSSGGGGSGGGGSGGGGSQSVLTQPCSSCAAPGQKVTISCSGSSSNIGNNYVSWYQQLPGTVPKLLIYGHTNRPAGVPDRFSGSKSGTSASLAISGFRSEDEADYYCAAWDDSLSGWVFGGGTKLTVLG
notes: Monomeric scFv, unconjugated
On to B1, for which the binding result in assay [1] was “binds”.

B2: AVP07-63 anti-HER2 diabody (Cys at Kabat L8 and L12, CDR3H cysteines removed, N-terminal serine; Myc+(His)6 tag) (other)
chain: SVQLVQSGAEVKKPGESLKISCKGSGYSFTSYWIAWVRQMPGKGLEYMGLIYPGDSDTKYSPSFQGQVTISVDKSVSTAYLQWSSLKPSDSAVYFCARHDVGYASSSNAAKWPEYFQHWGQGTLVTVSSGGGGSQSVLTQPCSSCAAPGQKVTISCSGSSSNIGNNYVSWYQQLPGTVPKLLIYGHTNRPAGVPDRFSGSKSGTSASLAISGFRSEDEADYYCAAWDDSLSGWVFGGGTKLTVLG
notes: Diabody
Regarding B2, the binding result in assay [1] is listed as “binds”.

B3: AVP07-63-PEG24 L8-L12 Diabody (other)
VH-linker-VL polypeptide of the diabody: SVQLVQSGAEVKKPGESLKISCKGSGYSFTSYWIAWVRQMPGKGLEYMGLIYPGDSDTKYSPSFQGQVTISVDKSVSTAYLQWSSLKPSDSAVYFCARHDVGYASSSNAAKWPEYFQHWGQGTLVTVSSGGGGSQSVLTQPCSSCAAPGQKVTISCSGSSSNIGNNYVSWYQQLPGTVPKLLIYGHTNRPAGVPDRFSGSKSGTSASLAISGFRSEDEADYYCAAWDDSLSGWVFGGGTKLTVLG
modifications: engineered cysteines at Kabat L8 and L12 (VL FR1) conjugated with maleimide-PEG24-methoxy
notes: also called PEGylated AVP07-63
B3: the binding result in assay [2] is recorded as “binds”.

B4: AVP07-68 anti-HER2 diabody (Cys at Kabat L8 and L12, CDR3H cysteines removed, N-terminal serine; (His)6 tag) (other)
chain: SVQLVQSGAEVKKPGESLKISCKGSGYSFTSYWIAWVRQMPGKGLEYMGLIYPGDSDTKYSPSFQGQVTISVDKSVSTAYLQWSSLKPSDSAVYFCARHDVGYASSSNAAKWPEYFQHWGQGTLVTVSSGGGGSQSVLTQPCSSCAAPGQKVTISCSGSSSNIGNNYVSWYQQLPGTVPKLLIYGHTNRPAGVPDRFSGSKSGTSASLAISGFRSEDEADYYCAAWDDSLSGWVFGGGTKLTVLG
notes: Diabody; It is identical to AVP07-63 except that it carries only the C-terminal (His)6 tag
Regarding B4, the binding result in assay [3] is “binds”.

B5: AVP07-17 anti-HER2 diabody (other)
chain: QVQLVQSGAEVKKPGESLKISCKGSGYSFTSYWIAWVRQMPGKGLEYMGLIYPGDSDTKYSPSFQGQVTISVDKSVSTAYLQWSSLKPSDSAVYFCARHDVGYCSSSNCAKWPEYFQHWGQGTLVTVSSGGGGSQSVLTQPPSVSAAPGQKVTISCSGSSSNIGNNYVSWYQQLPGTVPKLLIYGHTNRPAGVPDRFSGSKSGTSASLAISGFRSEDEADYYCAAWDDSLSGWVFGGGTKLTVLG
notes: Diabody of two VH-Gly4Ser-VL chains from a human anti-HER2 mAb, with a lambda VL; also called AVP07-17 Avibody
In the case of B5, in assay [1], the binding result is reported as “binds”.
